System: MS2 coat protein
Assay: apparent KD of MS2 coat protein; higher = weaker reporter binding
Settings: Eterna round: R107
Method: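 RNA-MaP round R107: designed RNA switches with theophylline, tryptophan, arginine or FMN aptamers are transcribed on-chip within common flanks. They are titrated with SNAP-549-labelled MS2 coat protein in RNA-MaP buffer (100 mM Tris pH 7.5, 80 mM KCl, 4 mM MgCl2), without ligand or with the indicated ligand. Median apparent KD per design.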

[1] = input ligand: theophylline 20 uM
[2] = input ligand: theophylline 2 mM
[3] = input ligand: tryptophan 2.4 mM

| Sequence | apparent KD of MS2 coat protein (input ligand: arginine 13.2 mM) [nM] | apparent KD of MS2 coat protein [1] [nM] | apparent KD of MS2 coat protein [2] [nM] | apparent KD of MS2 coat protein [3] [nM] | apparent KD of MS2 coat protein (input ligand: none) [nM] |
| --- | --- | --- | --- | --- | --- |
| AGCAUCUAGUCGGCCGCCACUCUUAUUACAUGAGGAUCACCCAUGUUUAAUUCAUGGUUAUAUUUGAGGACCGGGACAUUUGCAU [JR_ExcTryptoB_Sub007] | 39.7 | 70.2 | 74.9 | – | – |
| AGCCACUCGAGUGAUCCUCACGAGUGGCUACGAGGACCGGUACGGCCGCCACUCGAAUUAACAUGAGGAUCACCCAUGUAAUCAC [Brourdmod05] | 81.1 | 135 | 597 | – | – |
| AGCCCAUUACAUGAGGAUCACCCAUGUGAUACCAGUCAGGAAACUGACCCUUGGCAGCGCAUGAGGAUCACCCAUGCGCUGGGCA [Omei Theo A Exc A v6] | 10 | 11.7 | – | 12.2 | – |
| AGCGACAUGCGUGAUACCAGCUACAUGAGGAUCACCCAUGUAAGUAGGAAACUACUGUGUAGCCCUUGGCAGCACAAUGCAUGUC [Exclusion - Theophylline B (Freestyle 24)] | 20.3 | 37.2 | – | 20 | – |
| AGCGAGAUCCGUGAUACCAGCUACAUGAGGAUCACCCAUGUGAGCGCGAAAGUGCUGUGUAGCCCUUGGCAGCACAGUGGAUCUC [#29 Exclusion-TheophyllineB] | 8.84 | 14.6 | – | 11.3 | – |
| AGCGCGAAUAGAUCCAAAGUUAUUAGUGAGCGAGGACCGGUACGGCCGCCACUCGUGGCUCUACAUGAGGAUCACCCAUGUACAU [theeternabot_exclusion_MS2_Trp_A_10] | 52.2 | 234 | 384 | – | – |
| AGCGUGCAUAGGAAAACUAUGUACGCAAAUCGAGGACCGGUACGGCCGCCACUCGUCCUCAACAUGAGGAUCACCCAUGUAAUAA [Mat - Exclusion - Trytophan A - D9] | 18.9 | 26.7 | 22.5 | – | – |
| AGCUCGCGAAAGCGAGCAACAUGAUCCGAAGGAGCGCGCGAAAGCGCAGGUAGGUCGCGGACAUGAGGAUCACCCAUGUCUCCUU [MAT - Exclusion Arginine A - Mod of Eli - D14] | 41 | 57.3 | 63.2 | 62.2 | 66.2 |
| AGCUCUGAUACGGCCGCCACUAGAUGGUGUUGUAAGAGACGCCUACAUGAGGAUCACCCAUGUCAUAGGACCGGGUAUAAAUACA [theeternabot_sameState_MS2_Trp_B_8] | 27.8 | 30.7 | 46.4 | 18.2 | 26.4 |
| AGGAAGACGAUGGAUACCAGACAACCAGGGAACAUGAGGAUCACCCAUGUGAUUGAAAGGGUCCCUUGGCAGCCAGAAGCCGUUG [theeternabot_sameState_MS2_Theo_B_31] | 68.5 | 173 | – | 130 | – |
| AGGACAUCGGGAAGGAGCGCAUCCAAACCACACAUGAGGAUCACCCAUGUAUAAAUAUGCAUGCAGGUAGGUCGCCCGGUGUCUC [Veaza] | 77 | 140 | 137 | 108 | 109 |
| AGGUACGAAAACGUGGGUGAGUCGUACCAACGAGGACCGGUACGGCCGCCACUCGAAUAAACAUGAGGAUCACCCAUGUAAUAAU [T''-M-T'-T-MS2 - Design 6] | 25 | 58.3 | 66.5 | – | – |
| AGUAGCUGCCGAAGGAGCGCCGUGUUCCUACAUGAGGAUCACCCAUGUAGCGUUGGGUUACGGCAGGUAGGUCGCGGCAGAUAGG [#18 Same State - Arginine B] | 23.1 | 38.2 | 24.5 | 22.4 | 30 |
| AGUAGUUGACAAAAGUCAGCUACAACUGAAGGAGCGGGUGGGUGCCCAGGUAGGUCGCAGGAACAUGAGGAUCACCCAUGUAUAA [ArgAS 3 #BothOrNeither #OpenEnded] | 35.9 | 40.3 | 32.2 | 18.5 | 22.7 |
| AGUCUUGUAGGAAGGAGCGCAUACUUCACAUGAGGAUCACCCAUGUCAAGACGUGAGUCAGUGCAGGUAGGUCGCCUAACUAAGA [Same State - Arginine B (Freestyle 14)] | 18.6 | 28.7 | 26.3 | 18 | 17.3 |
| AGUGUUAUAACUGAUACCAGACCUUUGCUUAUACAUGAGGAUCACCCAUGUAAAAUGGCUGUCCCUUGGCAGCAGAGAAUACACA [#07 Same State - Theophylline B] | 42.9 | 45.2 | – | 47.1 | – |
| AGUUUAGACACGGCCGCCACUCGUGACAGAUUUCGCAGUGGUCAACAUGAGGAUCACCCAUGUCUGAGGACCGGGUGUUGAGUUU [XTryp B #7] | 45.2 | 48.7 | 53.4 | – | – |
| AUAACAUGAGGAUCACCCAUGUAAGCAGAUACCAGCUAGGAAACUAGCCCUUGGCAGCUGCAAGGUGAUCCUGCUGCCAAGGUAU [(M1)-(M2)-(T1)-(T2)-(M)'-(T)'_Design7] | 117 | 187 | 130 | 209 | 233 |

From the supplement of paper PMC9170038
